For assay [1], the target named is T1, GST-hRARα(DEF) (pGEX2T-hRARα(DEF), amino acids 153-462) (human, UniProt P10276 153-462).
T1 construct: range 153-462; Bacterially produced; also called GST-RAR; GST-RARα(DEF); not shown: glutathione-S-transferase (GST) of pGEX2T (Pharmacia)
T1 sequence (looked up): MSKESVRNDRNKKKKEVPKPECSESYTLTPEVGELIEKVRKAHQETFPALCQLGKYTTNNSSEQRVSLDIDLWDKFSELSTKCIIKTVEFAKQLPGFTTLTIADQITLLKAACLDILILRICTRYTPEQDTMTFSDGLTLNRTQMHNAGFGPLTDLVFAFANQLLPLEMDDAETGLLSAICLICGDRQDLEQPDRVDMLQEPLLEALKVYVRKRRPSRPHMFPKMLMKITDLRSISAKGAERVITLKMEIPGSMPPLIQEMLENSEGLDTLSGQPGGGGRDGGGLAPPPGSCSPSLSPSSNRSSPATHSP
Put plainly: GST pull-down with 35S in-vitro-translated TIF2 polypeptides, with or without 10^-6 M all-trans-retinoic acid.

Assay [2] has as its system GAL-CBP. The experiment in a line: two hybrid analysis of CBP-TIF2 interaction in HeLa cells. Format: cell-based. Here is the method: (e) Two hybrid analysis of the CBP-TIF2 interaction in mammalian cells in vivo. HeLa cells were transfected with 0.2 μg of the GAL4 or GALA-CBP (expressing CBP residues 1872 to 2165) expression vectors together with 0.2 μg of the VP16 or VPI6-TF2 expression vectors in the presence of 2 μg of (17m)5-TATA-CAT reporter plasmid. Fold induction relative to the GAL-CBP activity is indicated. The mean of three experiments is shown; in each case, values varied by less than ±20%.
HeLa cells were transfected with 0.2 μg of GAL4 or GAL-CBP expression vectors together with 0.2 μg of VP16 or VP16-TIF2.13 expression vectors in the presence of 1 μg of (17m)5-TATA-CAT reporter plasmid. Data are represented as fold induction of the activity seen with GAL-CBP alone. The mean and standard, deviation obtained from ten experiments are shown. The expression levels were confirmed by Western blotting with antibodies directed against GAL4 DBD and VP16 AAD (data not shown).
Furthermore, it was reported that SRC-1, which belongs to the same gene family as TIF2, interacts with CBP and p300 (Kamei, Y. et al., Cell 85:403-414 (1996); Yao, T. P. et al., Proc. Natl. Acad. Sci. USA 93:10626-10631 (1996); Hanstein, B., et al., Proc. Natl. Acad Sci USA 93:11540-11545 (1996)). Using GST-fusion protein-based interaction and animal cell-based two hybrid assays, we therefore analyzed whether TIF2 could also interact with CBP. […] A GST-CBP fusion protein was expressed in E. coli and used for puU-down assays with in vitro translated TIF2 polypeptides (FIG. 7d).

The subject of assay [3] is GAL4 reporter. The experiment in a line: GAL4 DBD-TIF2 fusion CAT reporter transactivation assay. Format: cell-based. The note with it: Cos-1 and/or HeLa cells. An outline of the steps: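 Transiently transfected HeLa and Cos-1 cells received plasmids (3 μg; 1-10 μg in titration) expressing TIF2 regions or mutants fused to GAL4 DBD(1-147), plus 1 μg (17m)5-G-CAT reporter. CAT activity measured by TLC phosphoimaging or CAT ELISA, normalized to cotransfected β-galactosidase, expressed as fold over GAL4 DBD alone; mean of ≥3 experiments.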

B1: TIF2.2 (TIF2 amino acids 1288-1464) (other)
chain: NPRIPQANAQQFPFPPNYGISQQPDPGFTGATTPQSPLMSPRMAHTQSPMMQQSQANPAYQAPSDINGWAQGNMGGNSMFSQQSPPHFGQQANTSMYSNNMNINVSMATNTGGMSSMNQMTGQISMTSVTSVSTSGLSSMGPEQVNDPALRGGNLFPNQLPGMDMIKQEGDTTRKYC
notes: In-vitro-translated; also called AD2
As to B1, in assay [1], the binding result is on record as “no binding”. Further, in assay [2], the “interaction with GAL-CBP, two hybrid” value was “not”. The “transcriptional activation of GAL4 reporter by GAL4 DBD fusion” value in assay [3] is on record as “able to activate transcription”.

These data come from patent US6861508B2, “Transcriptional intermediary factor-2” (Institut National de la Sante et de la Recherche Medicale, priority 1996, dated 2005).
